The values that follow come from patent US7329737 (DYAX, dated 2008).

The term Kd denotes the concentration at which binding is half-saturated. For orientation: koff means a measure of how fast the partners let go of each other. For orientation: kon means the second-order rate constant of association.

Residue numbers refer to the chain shown, from its start. Where only a bound is given, the exact number is not on record here.

The target of assay [1] is T1, hK1 (human tissue kallikrein 1), recombinant (human, UniProt P06870 25-262).
T1 construct: Expressed in P. pastoris from KLK1 cDNA and purified; enzymatically active; also called KLK1; Recombinant (Pichia) Kallikrein
As to the kind of experiment: SPR. Background: In SPR one partner is held on a chip, and binding of the other changes the refractive index at the surface.

The target in assay [2] is T1, hK1 (human tissue kallikrein 1), …. Nature of the assay: cell-based or functional assay.
Assay [3] has the same target. As to the kind of experiment: SPR, biotinylated hK1 on streptavidin chip; Fab 50 nM after DX-2300 50 nM (competitor DX-2300).
Source text: Epitope grouping by SPR. Biotinylated hK1 was captured on a streptavidin coated chip to a final ligand density of 88 RU. […] The signal at the end of the injection of the Fab alone is R2.

B1: M0102-H11 (Fab, V domains shown)
VH: EVQLLESGGGLVQPGGSLRLSCAASGFTFSKYPMTWVRQAPGKGLEWVSSISSSGGKTQYADSVKGRFTISRDNSKNTLYLQMNSLRAEDTAVYYCTRGGSSTLYFMDVWGQGTTVTVSS
VL: DIQMTQSPATLSLSPGERATLSCRASQSVSSYLAWYQQKPGQAPRLLIYGASSRATGIPDRFSGSGSGTDFTLTISSLEPEDFAVYYCQQRGGWPLTFGGGTKVEIRR
Consider B1, for which, in assay [1], the Kd came to 3.24 nM, the koff stood at 0.00741 s⁻¹ and the kon was found to be 2.29e+06 M⁻¹ s⁻¹. The “IC50 (nM), inhibition of hK1 hydrolysis of Pro-Phe-Arg-AMC” value in assay [2] was found to be 4.5 nM.

B2: M0112-D07 (Fab, V domains shown)
VH: EVQLLESGGGLVQPGGSLRLSCAASGFTFSFYSMSWVRQAPGKGLEWVSRIRPSGGRTDYADSVKGRFTISRDNSKNTLYLQMNSLRAEDTAVYYCARDRLYYYGSGSYYYGAFDIWGQGTMVTVSS
VL: DIQMTQSPSSLSASVGDRVTITCRASQTIRTYLNWYQQKPGIAPKFLIYDASNLQTGVPSRFSGSGSGTHFTLTISSLQPEDFGTYYCQQSYGGPPTFGRGTKIEIKR
For B2, in assay [1], the Kd turned out to be 5.81 nM, the koff was determined as 0.000781 s⁻¹ and the kon stood at 134000 M⁻¹ s⁻¹. In addition, in assay [2], the “IC50 (nM), inhibition of hK1 enzyme activity” value was > 120 nM. Besides, the “Fab Signal following DX-2300 (R1)” value in assay [3] stood at 3.

B3: M0117-F04 (Fab, V domains shown)
VH: EVQLLESGGGLVQPGGSLRLSCAASGFTFSMYVMNWVRQAPGKGLEWVSRIGSSGGGTLYADSVKGRFTISRDNSKNTLYLQMNSLRAEDTAVYYCARVSVYRIRNYYYYAMDVWGQGTTVTVSS
VL: DIQMTQSPSSLSASVGDRVTITCRASQGIGNYLAWYQQKPGKAPNLLIYKTSNLQSGVPSRFRGSGSGTEFTLTITSVQPDDFATYFCQRYDSYSQYIFGQGTKLETKR
For B3, in assay [1], the Kd was found to be 6.61 nM, the koff turned out to be 0.00197 s⁻¹ and the kon was determined as 298000 M⁻¹ s⁻¹. In assay [2], the “IC50 (nM), inhibition of hK1 hydrolysis of Pro-Phe-Arg-AMC” value was 5.2 nM. In addition, the “Fab Signal following DX-2300 (R1)” value in assay [3] came to 6.7.

B4: M0134-D07 (Fab, V domains shown)
VH: EVQLLESGGGLVQPGGSLRLSCAASGFTFSRYFMIWVRQAPGKGLEWVSSIVPSGGPTRYADSVKGRFTISRDNSKNTLYLQMNSLRAEDTAVYYCARRGPVYYYDSSGSHSAFDIWGQGTMVTVSS
VL: DIQMTQSPSSLSASVGDRVTITCRASQGIRNDLGWYQQKPGKAPKLLIYAASSLQSGVPSRFSGSGSGTDFTLTISSLQPEDFATYYCLQDYNYPRTFGQGTKVEIKR
In the case of B4, in assay [1], the Kd was determined as 2.69 nM, the koff was 0.000138 s⁻¹ and the kon turned out to be 51300 M⁻¹ s⁻¹. Also, the “IC50 (nM), inhibition of hK1 hydrolysis of Pro-Phe-Arg-AMC” value in assay [2] amounted to 10.1 nM. Moreover, the “Fab Signal following DX-2300 (R1)” value in assay [3] stood at 2.3.

B5: M0097-G01 (Fab, V domains shown)
VH: EVQLLESGGGLVQPGGSLRLSCAASGFTFSPYYMQWVRQAPGKGLEWVSGISSSGGSTQYADSVKGRFTISRDNSKNTLYLQMNSLRAEDTAVYYCARSQRRTYYPNFGDAFDIWGQGTMVTVSS
VL: DIQMTQSPSSLSASVGDRVTITCRASQGIGNYLVWYQHKPGNVPRVLIYAASTLQSGVPSRFRGSGSGTDFTLTISGLQPEDVATYYCQKYDGAPFTFGPGTKVDLKR
Turning to B5, in assay [1], the Kd came out at 4.8 nM, the koff worked out at 0.000832 s⁻¹ and the association rate constant (kon) was 173000 M⁻¹ s⁻¹. Also, the “IC50 (nM), inhibition of hK1 hydrolysis of Pro-Phe-Arg-AMC” value in assay [2] stood at 7.2 nM.

B6: M0114-G06 (Fab, V domains shown)
VH: EVQLLESGGGLVQPGGSLRLSCAASGFTFSYYEMEWVRQAPGKGLEWVSSIRPSGGRTVYADSVKGRFTISRDNSKNTLYLQMNSLRAEDTAVYYCAKGRSNYYGSGSYSPKYFQHWGQGTLVTVSS
VL: DIQMTQSPSSLSASVGDRVTITCRASQGISSWLAWYQQRPERAPKSLIYAASSLERGVPSRFRGSGSGTDFTLTISSLQPEDFGTYYCQQYHNFPLTFGGGTRVEINR
In the case of B6, in assay [1], the dissociation constant Kd amounted to 0.999 nM, the koff was 0.000166 s⁻¹ and the on-rate (kon) amounted to 167000 M⁻¹ s⁻¹. Moreover, the “IC50 (nM), inhibition of hK1 hydrolysis of Pro-Phe-Arg-AMC” value in assay [2] amounted to 1.2 nM. Moreover, the “Fab Signal following DX-2300 (R1)” value in assay [3] worked out at 4.8.

B7: M0098-E09 (Fab, V domains shown)
VH: EVQLLESGGGLVQPGGSLRLSCAASGFTFSRYGMQWVRQAPGKGLEWVSYIYPSGGGTVYADSVKGRFTISRDNSKNTLYLQMNSLRAEDTAVYYCARRVAVAGSWYYYYYGMDVWGQGTTVTVSS
VL: DIQMTQSPSSVSASVGDSVTISCWTIYDISSWLAWYQQRPGQAPKLLIYAASRLATGVPSRFRGSGSGTDFTLTITNLQPEDVATYYCQQTKDFPLTFGGGTRVDLKR
On to B7, for which, in assay [1], the dissociation constant (Kd) worked out at 1.91 nM, the koff came out at 0.00159 s⁻¹ and the kon was determined as 836000 M⁻¹ s⁻¹. Besides, the “IC50 (nM), inhibition of hK1 hydrolysis of Pro-Phe-Arg-AMC” value in assay [2] was 2.5 nM. For the same molecule, the “Fab Signal following DX-2300 (R1)” value in assay [3] was determined as 8.5.

B8: M0139-A09 (Fab, V domains shown)
VH: EVQLLESGGGLVQPGGSLRLSCAASGFTFSWYFMVWVRQAPGKGLEWVSGIGPSGGLTTYADSVKGRFTISRDNSKNTLYLQMNSLRAEDTAVYYCARSDWLNYWGQGTLVTVSS
VL: DIVMTQTPPSLPVNPGEPASISCRSSQSLVYSDGNTYLNWFQQRPGQSPRRLIYKVSNRDSGVPDRFSGSGSGTDFTLKISRVEAEDVGVYYCMQGTHWQRLTFGGGTKVEIKR
With B8, in assay [1], the Kd came to 5.48 nM, the off-rate constant (koff) was found to be 0.00106 s⁻¹ and the kon came to 194000 M⁻¹ s⁻¹. The “IC50 (nM), inhibition of hK1 enzyme activity” value in assay [2] was determined as 34 nM. Further, the “Fab Signal following DX-2300 (R1)” value in assay [3] was found to be 25.7.

B9: M0139-F04 (Fab, V domains shown)
VH: EVQLLESGGGLVQPGGSLRLSCAASGFTFSRYYMEWVRQAPGKGLEWVSSISSSGGSTEYADSVKGRFTISRDNSKNTLYLQMNSLRAEDTAVYYCAKDITPGGGSGFRLPKNYYYYGMDVWGQGTTVTVSS
VL: DIQMTQSPSSLSASVGDRVTITCRASQAISTNLNWYQQKPGKAPKLLIYAASSLQSGVPSRFIGSGSGTDFTLTISSLHPEDFATYHCQQTFSPPHTFGQGTKVEIQR
Consider B9, for which, in assay [1], the Kd was 7.27 nM, the koff is 0.00134 s⁻¹ and the kon was 184000 M⁻¹ s⁻¹. Also, the “IC50 (nM), inhibition of hK1 hydrolysis of Pro-Phe-Arg-AMC” value in assay [2] turned out to be 20.7 nM.

B10: M0102-G12 (Fab, V domains shown)
VH: B9 VH with R31K, Y33K, E35V, S52Y, S53P, S57I, E59A, V93M
VL: AQSELTQPPSASGTPGQRVTISCSGTLSNIGTNIVSWFQQLPGTAPKLLIYNDHRRPSGVPDRFSGSKSATSASLAISGLQSEDEADYYCAAWDDSLNGVVFGGGTKLTVLS
For B10, in assay [1], the Kd was 5.28 nM, the koff is 0.000442 s⁻¹ and the on-rate constant (kon) amounted to 83700 M⁻¹ s⁻¹. Moreover, the “IC50 (nM), inhibition of hK1 hydrolysis of Pro-Phe-Arg-AMC” value in assay [2] is 3.3 nM.

B11: M0139-E12 (Fab, V domains shown)
VH: EVQLLESGGGLVQPGGSLRLSCAASGFTFSWYSMNWVRQAPGKGLEWVSSIGPSGGGTKYADSVKGRFTISRDNSKNTLYLQMNSLRAEDTAVYYCASRGQRKQWLPPNGAFDIWGQGTMVTVSS
VL: DIQMTQSPSSVSASVGDRVTMTCRASRGISNWLAWYQQKPGKAPELLIHSASTLHAGVPSRFSGSGSGTDFTLTISSLQPGDFATYYCQEGNSFPYTFGQGTNLQIKR
As to B11, in assay [1], the Kd amounted to 1.87 nM, the koff stood at 0.000233 s⁻¹ and the kon was found to be 125000 M⁻¹ s⁻¹. The “IC50 (nM), inhibition of hK1 hydrolysis of Pro-Phe-Arg-AMC” value in assay [2] was 2.9 nM.

B12: M0136-A07 (Fab, V domains shown)
VH: EVQLLESGGGLVQPGGSLRLSCAASGFTFSWYHMYWVRQAPGKGLEWVSYIRPSGGNTNYADSVKGRFTISRDNSKNTLYLQMNSLRAEDTAMYYCARDRRGYSSSKGYYYYGMDVWGQGTTVTVSS
VL: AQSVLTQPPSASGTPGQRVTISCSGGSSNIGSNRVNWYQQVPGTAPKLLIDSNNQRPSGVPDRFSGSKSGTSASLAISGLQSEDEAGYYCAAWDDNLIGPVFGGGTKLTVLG
notes: No HC-136-A07 entry is printed
B12: in assay [1], the Kd was found to be 7.98 nM, the koff is 0.00258 s⁻¹ and the kon worked out at 323000 M⁻¹ s⁻¹. In assay [2], the “IC50 (nM), inhibition of hK1 enzyme activity” value is 25 nM. In assay [3], the “Fab Signal following DX-2300 (R1)” value was determined as 5.
